Results on 11 molecules are retold here after patent US20190185537A1 (AstraZeneca / MedImmune, published 2019).

Numbered stars: 1 amine (or outer) side, 2 acyl side, 3 side chain; on linkers, the order of the positions; unused ones are H or OH. Side chains are listed from the residue outwards. Ends that are not written are not given here. * marks the point of attachment. γGlu = O=C(O)[C@H](CCC(=O)[*:2])N[*:1]; Palmitoyl = CCCCCCCCCCCCCCCC(=O)*; Ahx = NCCCCCC(=O)O; βAla = NCCC(=O)O

What all share (assay): cell-based or functional assay
One assay has as its target human glucagon receptor (human, UniProt P47871 26-477).
A further assay deals with human GLP-1 receptor (human, UniProt P43220 24-463).
Assay [1] has as its target T1, human glucose-dependent insulinotropic peptide (gastric inhibitory polypeptide) receptor (human) (UniProt P48546).
T1 sequence (looked up): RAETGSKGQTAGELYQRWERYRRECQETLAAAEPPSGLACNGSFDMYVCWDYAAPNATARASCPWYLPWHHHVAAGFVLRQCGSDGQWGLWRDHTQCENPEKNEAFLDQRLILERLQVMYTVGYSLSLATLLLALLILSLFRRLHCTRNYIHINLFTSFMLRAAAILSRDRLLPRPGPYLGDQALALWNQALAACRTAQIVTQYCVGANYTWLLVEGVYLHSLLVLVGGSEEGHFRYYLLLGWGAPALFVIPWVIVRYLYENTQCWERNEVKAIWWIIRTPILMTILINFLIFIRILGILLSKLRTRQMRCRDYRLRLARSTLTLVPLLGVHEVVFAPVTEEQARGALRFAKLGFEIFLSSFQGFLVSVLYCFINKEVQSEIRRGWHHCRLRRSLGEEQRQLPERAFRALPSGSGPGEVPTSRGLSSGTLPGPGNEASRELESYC

human GLP-1 receptor, sequence (P43220 24-463): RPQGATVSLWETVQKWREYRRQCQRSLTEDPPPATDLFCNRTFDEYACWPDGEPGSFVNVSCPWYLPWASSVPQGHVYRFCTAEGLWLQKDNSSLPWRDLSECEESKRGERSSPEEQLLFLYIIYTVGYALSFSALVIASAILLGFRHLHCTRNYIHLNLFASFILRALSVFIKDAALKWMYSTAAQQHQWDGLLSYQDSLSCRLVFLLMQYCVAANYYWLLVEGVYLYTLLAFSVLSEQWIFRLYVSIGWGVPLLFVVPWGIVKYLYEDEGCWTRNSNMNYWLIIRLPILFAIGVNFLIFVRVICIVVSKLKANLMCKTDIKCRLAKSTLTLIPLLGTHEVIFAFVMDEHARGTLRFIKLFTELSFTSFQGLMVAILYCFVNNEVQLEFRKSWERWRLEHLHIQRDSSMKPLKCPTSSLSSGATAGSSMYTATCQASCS
human glucagon receptor, sequence (P47871 26-477): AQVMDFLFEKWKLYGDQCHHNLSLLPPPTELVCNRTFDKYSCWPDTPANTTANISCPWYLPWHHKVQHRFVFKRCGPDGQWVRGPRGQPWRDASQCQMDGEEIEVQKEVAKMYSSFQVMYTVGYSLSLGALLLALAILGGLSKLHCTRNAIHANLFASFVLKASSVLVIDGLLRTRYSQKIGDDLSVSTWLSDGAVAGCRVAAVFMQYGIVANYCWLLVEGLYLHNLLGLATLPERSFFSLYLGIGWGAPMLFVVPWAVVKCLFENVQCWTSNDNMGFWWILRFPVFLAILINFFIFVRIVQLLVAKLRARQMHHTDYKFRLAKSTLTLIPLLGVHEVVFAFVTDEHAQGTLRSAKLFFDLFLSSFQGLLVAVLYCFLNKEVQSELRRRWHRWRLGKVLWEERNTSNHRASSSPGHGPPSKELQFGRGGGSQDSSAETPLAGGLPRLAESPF

For the molecule HSQGTFTSDYSEYLDSK([γGlu-Palmitoyl])RARDFVAWLERGG-NH2 (not fully specified) [g772], the cAMP EC50 (assay 1) with human glucagon receptor is 0.184 nM; with human GLP-1 receptor, 0.292 nM; in assay [1], 1540 nM.
Take HSQGTFTSDYSEYLDSK([Ahx-Palmitoyl])RARDFVAWLERGG-OH (not fully specified) [g826]: the cAMP EC50 (assay 1) in the assay with human glucagon receptor was 0.00423 nM; in the assay with human GLP-1 receptor, 0.0293 nM; in assay [1], 58 nM.

B1: g727 (peptide)
peptide: HGQGTFTSDYSEYLDSK([Ahx-Palmitoyl])RARDFVAWLERGG-OH
modifications: N-terminus assumed
SMILES: CCCCCCCCCCCCCCCC(=O)NCCCCCC(=O)NCCCC[C@H](NC(=O)[C@H](CO)NC(=O)[C@H](CC(=O)O)NC(=O)[C@H](CC(C)C)NC(=O)[C@H](Cc1ccc(O)cc1)NC(=O)[C@H](CCC(=O)O)NC(=O)[C@H](CO)NC(=O)[C@H](Cc1ccc(O)cc1)NC(=O)[C@H](CC(=O)O)NC(=O)[C@H](CO)NC(=O)[C@@H](NC(=O)[C@H](Cc1ccccc1)NC(=O)[C@@H](NC(=O)CNC(=O)[C@H](CCC(N)=O)NC(=O)CNC(=O)[C@@H](N)Cc1c[nH]cn1)[C@@H](C)O)[C@@H](C)O)C(=O)N[C@@H](CCCNC(=N)N)C(=O)N[C@@H](C)C(=O)N[C@@H](CCCNC(=N)N)C(=O)N[C@@H](CC(=O)O)C(=O)N[C@@H](Cc1ccccc1)C(=O)N[C@H](C(=O)N[C@@H](C)C(=O)N[C@@H](Cc1c[nH]c2ccccc12)C(=O)N[C@@H](CC(C)C)C(=O)N[C@@H](CCC(=O)O)C(=O)N[C@@H](CCCNC(=N)N)C(=O)NCC(=O)NCC(=O)O)C(C)C
Take B1: the cAMP EC50 (assay 1) with human glucagon receptor stood at 0.218 nM; with human GLP-1 receptor, 0.0263 nM; in assay [1], 177 nM.

B2: g725 (peptide)
peptide: HGEGTFTSDYSEYLDSK([Ahx-Palmitoyl])RAADFVAWLERGG-NH2
modifications: N-terminus assumed
SMILES: CCCCCCCCCCCCCCCC(=O)NCCCCCC(=O)NCCCC[C@H](NC(=O)[C@H](CO)NC(=O)[C@H](CC(=O)O)NC(=O)[C@H](CC(C)C)NC(=O)[C@H](Cc1ccc(O)cc1)NC(=O)[C@H](CCC(=O)O)NC(=O)[C@H](CO)NC(=O)[C@H](Cc1ccc(O)cc1)NC(=O)[C@H](CC(=O)O)NC(=O)[C@H](CO)NC(=O)[C@@H](NC(=O)[C@H](Cc1ccccc1)NC(=O)[C@@H](NC(=O)CNC(=O)[C@H](CCC(=O)O)NC(=O)CNC(=O)[C@@H](N)Cc1c[nH]cn1)[C@@H](C)O)[C@@H](C)O)C(=O)N[C@@H](CCCNC(=N)N)C(=O)N[C@@H](C)C(=O)N[C@@H](C)C(=O)N[C@@H](CC(=O)O)C(=O)N[C@@H](Cc1ccccc1)C(=O)N[C@H](C(=O)N[C@@H](C)C(=O)N[C@@H](Cc1c[nH]c2ccccc12)C(=O)N[C@@H](CC(C)C)C(=O)N[C@@H](CCC(=O)O)C(=O)N[C@@H](CCCNC(=N)N)C(=O)NCC(=O)NCC(N)=O)C(C)C
On to B2, for which the cAMP EC50 (assay 1) is 59.9 nM in the assay with human glucagon receptor, 0.0252 nM with human GLP-1 receptor and 1480 nM in assay [1].
Taken in the same sequence, the figures for HSQGTFTSDYSEYLDSK([βAla-Palmitoyl])RARDFVAWLERGG-NH2 (not fully specified) [g795] were 0.11 nM, 0.0734 nM and 579 nM.

B3: g724 (peptide)
peptide: HGEGTFTSDYSEYLDSK([Ahx-Palmitoyl])RARDFVAWLERGG-NH2
modifications: N-terminus assumed
SMILES: CCCCCCCCCCCCCCCC(=O)NCCCCCC(=O)NCCCC[C@H](NC(=O)[C@H](CO)NC(=O)[C@H](CC(=O)O)NC(=O)[C@H](CC(C)C)NC(=O)[C@H](Cc1ccc(O)cc1)NC(=O)[C@H](CCC(=O)O)NC(=O)[C@H](CO)NC(=O)[C@H](Cc1ccc(O)cc1)NC(=O)[C@H](CC(=O)O)NC(=O)[C@H](CO)NC(=O)[C@@H](NC(=O)[C@H](Cc1ccccc1)NC(=O)[C@@H](NC(=O)CNC(=O)[C@H](CCC(=O)O)NC(=O)CNC(=O)[C@@H](N)Cc1c[nH]cn1)[C@@H](C)O)[C@@H](C)O)C(=O)N[C@@H](CCCNC(=N)N)C(=O)N[C@@H](C)C(=O)N[C@@H](CCCNC(=N)N)C(=O)N[C@@H](CC(=O)O)C(=O)N[C@@H](Cc1ccccc1)C(=O)N[C@H](C(=O)N[C@@H](C)C(=O)N[C@@H](Cc1c[nH]c2ccccc12)C(=O)N[C@@H](CC(C)C)C(=O)N[C@@H](CCC(=O)O)C(=O)N[C@@H](CCCNC(=N)N)C(=O)NCC(=O)NCC(N)=O)C(C)C
For the molecule B3, the values for the cAMP EC50 (assay 1) (in the assay with human glucagon receptor; in the assay with human GLP-1 receptor; in assay [1]) were 30.9 nM, 0.019 nM and 933 nM, respectively.

B4: g684 (peptide)
peptide: HGQGTFTSDYSEYLDSK([Ahx-Palmitoyl])RARDFVAWLERGG-NH2
modifications: N-terminus assumed
SMILES: CCCCCCCCCCCCCCCC(=O)NCCCCCC(=O)NCCCC[C@H](NC(=O)[C@H](CO)NC(=O)[C@H](CC(=O)O)NC(=O)[C@H](CC(C)C)NC(=O)[C@H](Cc1ccc(O)cc1)NC(=O)[C@H](CCC(=O)O)NC(=O)[C@H](CO)NC(=O)[C@H](Cc1ccc(O)cc1)NC(=O)[C@H](CC(=O)O)NC(=O)[C@H](CO)NC(=O)[C@@H](NC(=O)[C@H](Cc1ccccc1)NC(=O)[C@@H](NC(=O)CNC(=O)[C@H](CCC(N)=O)NC(=O)CNC(=O)[C@@H](N)Cc1c[nH]cn1)[C@@H](C)O)[C@@H](C)O)C(=O)N[C@@H](CCCNC(=N)N)C(=O)N[C@@H](C)C(=O)N[C@@H](CCCNC(=N)N)C(=O)N[C@@H](CC(=O)O)C(=O)N[C@@H](Cc1ccccc1)C(=O)N[C@H](C(=O)N[C@@H](C)C(=O)N[C@@H](Cc1c[nH]c2ccccc12)C(=O)N[C@@H](CC(C)C)C(=O)N[C@@H](CCC(=O)O)C(=O)N[C@@H](CCCNC(=N)N)C(=O)NCC(=O)NCC(N)=O)C(C)C
Take B4: the cAMP EC50 (assay 1) with human glucagon receptor worked out at 0.164 nM; with human GLP-1 receptor, 0.0151 nM; in assay [1], 146 nM.
For HSQGTFTSDYSEYLDSK([Ahx-Palmitoyl])RAADFVAWLERGG-NH2 (not fully specified) [g818], the cAMP EC50 (assay 1) with human glucagon receptor worked out at 0.0089 nM; with human GLP-1 receptor it was 0.021 nM; in assay [1], 94 nM.

B5: g614 (peptide)
peptide: HSQGTFTSDYSEYLDSK([Ahx-Palmitoyl])RAQDFVQWLERGG-NH2
modifications: N-terminus assumed
SMILES: CCCCCCCCCCCCCCCC(=O)NCCCCCC(=O)NCCCC[C@H](NC(=O)[C@H](CO)NC(=O)[C@H](CC(=O)O)NC(=O)[C@H](CC(C)C)NC(=O)[C@H](Cc1ccc(O)cc1)NC(=O)[C@H](CCC(=O)O)NC(=O)[C@H](CO)NC(=O)[C@H](Cc1ccc(O)cc1)NC(=O)[C@H](CC(=O)O)NC(=O)[C@H](CO)NC(=O)[C@@H](NC(=O)[C@H](Cc1ccccc1)NC(=O)[C@@H](NC(=O)CNC(=O)[C@H](CCC(N)=O)NC(=O)[C@H](CO)NC(=O)[C@@H](N)Cc1c[nH]cn1)[C@@H](C)O)[C@@H](C)O)C(=O)N[C@@H](CCCNC(=N)N)C(=O)N[C@@H](C)C(=O)N[C@@H](CCC(N)=O)C(=O)N[C@@H](CC(=O)O)C(=O)N[C@@H](Cc1ccccc1)C(=O)N[C@H](C(=O)N[C@@H](CCC(N)=O)C(=O)N[C@@H](Cc1c[nH]c2ccccc12)C(=O)N[C@@H](CC(C)C)C(=O)N[C@@H](CCC(=O)O)C(=O)N[C@@H](CCCNC(=N)N)C(=O)NCC(=O)NCC(N)=O)C(C)C
In the case of B5, the values for the cAMP EC50 (assay 1) (in the assay with human glucagon receptor; in the assay with human GLP-1 receptor; in assay [1]) were 0.00365 nM, 0.00931 nM and 99.3 nM, respectively.

B6: g721 (peptide)
peptide: HGQGTFTSDYSEYLDSK([γGlu-Palmitoyl])RARDFVAWLERGG-NH2
modifications: N-terminus assumed
SMILES: CCCCCCCCCCCCCCCC(=O)N[C@@H](CCC(=O)NCCCC[C@H](NC(=O)[C@H](CO)NC(=O)[C@H](CC(=O)O)NC(=O)[C@H](CC(C)C)NC(=O)[C@H](Cc1ccc(O)cc1)NC(=O)[C@H](CCC(=O)O)NC(=O)[C@H](CO)NC(=O)[C@H](Cc1ccc(O)cc1)NC(=O)[C@H](CC(=O)O)NC(=O)[C@H](CO)NC(=O)[C@@H](NC(=O)[C@H](Cc1ccccc1)NC(=O)[C@@H](NC(=O)CNC(=O)[C@H](CCC(N)=O)NC(=O)CNC(=O)[C@@H](N)Cc1c[nH]cn1)[C@@H](C)O)[C@@H](C)O)C(=O)N[C@@H](CCCNC(=N)N)C(=O)N[C@@H](C)C(=O)N[C@@H](CCCNC(=N)N)C(=O)N[C@@H](CC(=O)O)C(=O)N[C@@H](Cc1ccccc1)C(=O)N[C@H](C(=O)N[C@@H](C)C(=O)N[C@@H](Cc1c[nH]c2ccccc12)C(=O)N[C@@H](CC(C)C)C(=O)N[C@@H](CCC(=O)O)C(=O)N[C@@H](CCCNC(=N)N)C(=O)NCC(=O)NCC(N)=O)C(C)C)C(=O)O
Take B6: the cAMP EC50 (assay 1) with human glucagon receptor stood at 3.23 nM; with human GLP-1 receptor it was 0.411 nM; in assay [1] it was 979 nM.
For the molecule HSQGTFTSDYSEYLDSK([Ahx-Palmitoyl])RARDFVAWLERGG-NH2 (not fully specified) [g794], the cAMP EC50 (assay 1) with human glucagon receptor came out at 0.00469 nM; with human GLP-1 receptor, 0.0157 nM; in assay [1] it was 32.2 nM.
